The target of series [1] is T1, human PTH1 receptors (Homo sapiens, UniProt Q03431).
T1 construct: expressed in transfected cells; host or cells: HKRK-B7 and HKRK-B64 cells (derived from pig kidney LLC-PK1 cells)
T1 sequence (Q03431 27-593): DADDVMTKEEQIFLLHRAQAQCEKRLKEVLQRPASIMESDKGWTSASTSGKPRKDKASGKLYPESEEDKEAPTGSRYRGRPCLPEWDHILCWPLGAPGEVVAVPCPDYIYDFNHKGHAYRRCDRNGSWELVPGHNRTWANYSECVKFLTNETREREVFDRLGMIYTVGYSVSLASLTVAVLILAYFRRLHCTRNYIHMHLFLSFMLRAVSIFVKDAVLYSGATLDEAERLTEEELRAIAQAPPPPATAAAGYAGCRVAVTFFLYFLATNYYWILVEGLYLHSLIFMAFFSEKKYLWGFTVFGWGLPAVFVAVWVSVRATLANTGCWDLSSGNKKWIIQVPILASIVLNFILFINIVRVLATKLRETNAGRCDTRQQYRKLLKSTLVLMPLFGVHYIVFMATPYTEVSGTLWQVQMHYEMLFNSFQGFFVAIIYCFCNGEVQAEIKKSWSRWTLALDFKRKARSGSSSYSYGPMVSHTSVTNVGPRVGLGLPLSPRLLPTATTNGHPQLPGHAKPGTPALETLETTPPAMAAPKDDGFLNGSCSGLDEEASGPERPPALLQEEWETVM
Nature of the series: in vitro ability to produce cAMP, HKRK-B7 cells. The conditions noted are these: Table 2(1), n=2-3. It counts as cell-based. How it is done:
(§1) Each PEG-PTH sample was assayed for its ability to produce cAMP (indicative of the increasing effect of PTH on bone mass) as follows. […] These cells were seeded in 96-well plates at 1×10^5 cells/well and incubated overnight. […] After removing the reaction solution, the plates were placed on powdered dry ice to freeze the cells and then removed from the dry ice. The cells were thawed with 50 μL of 50 mM HCl and frozen again on dry ice. The level of intracellular cAMP was determined with a commercially available EIA kit (Biotrak cAMP EIA system, Amersham).

The target in series [2] is T1, human PTH1 receptors. Kind of series: in vitro ability to produce cAMP, HKRK-B64 cells. In kind it is cell-based. The conditions noted are these: Table 2(2), n=2-3. How it is done: Each PEG-PTH sample was assayed for its ability to produce cAMP (indicative of the increasing effect of PTH on bone mass) as follows. HKRK-B7 and HKRK-B64 cells, genetically modified from pig kidney-derived LLC-PK1 cells to overexpress human PTH1 receptors at levels of about 1×10^6 and 9×10^4 receptors per cell, respectively, as well as EW29 cells expressing about 1.9×10^5 rat PTH1 receptors per cell (Takasu et al., J. Bone. Miner. Res. 14: 11-20, 1999) were grown in DMEM supplemented with 10% FBS, 1% penicillin and 1% streptomycin. These cells were seeded in 96-well plates at 1×10^5 cells/well and incubated overnight. On the following day, the cells were washed once with 200 μL binding buffer (50 mM Tris-HCl/100 mM NaCl/5 mM KCl/2 mM CaCl2/5% inactivated horse serum/0.5% inactivated bovine serum, pH 7.7), followed by addition of 100 μL cAMP assay buffer (DMEM/2 mM 3-isobutyl-1-methylxanthine/1 mg/mL bovine serum albumin/35 mM HEPES-NaOH, pH 7.4) on ice. […] After removing the reaction solution, the plates were placed on powdered dry ice to freeze the cells and then removed from the dry ice. The cells were thawed with 50 μL of 50 mM HCl and frozen again on dry ice. The level of intracellular cAMP was determined with a commercially available EIA kit (Biotrak cAMP EIA system, Amersham).

The target of the next series is T2, rat PTH1 receptors (Rattus norvegicus, UniProt P25961).
T2 construct: expressed in transfected cells; host or cells: EW29 cells
T2 sequence (P25961 27-591): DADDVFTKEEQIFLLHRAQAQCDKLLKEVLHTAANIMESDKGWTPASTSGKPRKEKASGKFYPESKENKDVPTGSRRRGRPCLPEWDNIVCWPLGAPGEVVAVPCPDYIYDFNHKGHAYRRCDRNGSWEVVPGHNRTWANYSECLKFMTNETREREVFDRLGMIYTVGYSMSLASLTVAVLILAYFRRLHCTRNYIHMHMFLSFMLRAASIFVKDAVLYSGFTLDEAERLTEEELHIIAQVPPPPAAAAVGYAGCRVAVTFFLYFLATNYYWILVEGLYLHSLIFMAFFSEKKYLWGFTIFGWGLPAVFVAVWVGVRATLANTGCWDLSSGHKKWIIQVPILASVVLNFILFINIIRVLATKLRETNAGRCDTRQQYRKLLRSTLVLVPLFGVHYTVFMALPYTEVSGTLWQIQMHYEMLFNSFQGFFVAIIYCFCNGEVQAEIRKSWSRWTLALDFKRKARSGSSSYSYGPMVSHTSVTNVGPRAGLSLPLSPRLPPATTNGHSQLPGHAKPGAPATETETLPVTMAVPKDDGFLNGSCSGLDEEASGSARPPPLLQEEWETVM
Nature of the series: in vitro ability to produce cAMP, EW29 cells. It counts as cell-based. Conditions: Table 2(3), n=2-3. How it is done:
as §1

Series [3] in a line: Increasing effect on bone mass in OVX rats. It counts as in vivo. How it is done:
2 k PEG-[Cys^35]-PTH(1-35) was studied for the increasing effect on bone mass in OVX rats as follows. […] These samples were divided into aliquots and stored at −80° C. until use.
Female SD-IGS rats at 7 weeks of age (Charles River Japan, Inc.) were used, 60 of which were ovariectomized (OVX) to remove both ovaries and 7 of which were sham-operated. After 2 weeks, the ovariectomized rats were measured for their body weight and divided into groups of 6 rats each such that the mean body weights of all groups were identical.
Each drug was given subcutaneously at a dose of 1 ml/kg on a 5 times-a-week basis for 4 weeks. On the last day of administration, the rats were housed in metabolic cages and 24-hour urine was collected from each rat. On the following day, after the rats were euthanized by exsanguination under anesthesia, an autopsy was performed to collect blood, lumbar vertebrae and femurs. The urine and blood were taken into tubes and centrifuged to collect the respective supernatants, which were stored at −20° C. until assayed for parameters. The lumbar vertebrae and right femurs were stored in 70% ethanol. The average bone density of the second to fifth lumbar vertebrae and the bone density of the right femur were measured using a dual X-ray bone mineral densitometer (DCS-600EX, ALOKA).

For series [4] the following is noted: clinical, single subcutaneous 20-40 μg, at 4 to 6 hours after administration; cited from earlier work.
For series [5] the following is noted: clinical trial, cited from earlier work.

Like-named read-outs stand apart in the source and are kept apart here.

Usually EC50 stands for the concentration needed to bring the measured effect to its halfway point. Low readings indicate a more potent agent, high ones a less potent agent.

Consider “2 k PEG-[Cys^35]-hPTH(1-35): [Cys^35]-PTH(1-35) conjugated with mPEG 2 k-MAL (2 kDa methoxy-PEG-maleimide) at the C-terminal cysteine (SVSEIQLMHNLGKHLNSMERVEWLRKKLQDVHNFC; Parathyroid hormone 2 kDa mPEG-maleimide at Cys35; UniProt P01270 32-66, looked up, variant V35C)”, for which the figures for the “Maximum cAMP response” value in the series with human PTH1 receptors [1], with human PTH1 receptors [2] and with rat PTH1 receptors were 109.3 ± 10.1 pmol/well, 65.4 ± 19.4 pmol/well and 52.2 ± 12.3 pmol/well, respectively. Besides, the concentration giving a half-maximal response (EC50) with human PTH1 receptors [1] (cAMP production) was determined as 0.5 nM; in the series with human PTH1 receptors [2] (cAMP production), 0.6 nM; with rat PTH1 receptors (cAMP production), 2.2 nM. Besides, in series [3] (OVX rats, 7.5, 30 and 120 nmol/kg sc, 4 weeks), the “lumbar and femoral bone density, significance (in words)” value is “statistically-significant increases in both lumbar and femoral bone density”. Further, in series [3] (OVX rats, sc 5 times a week for 4 weeks), the “lumbar and femoral bone density (in words)” value is “dose-dependent increases in lumbar and femoral bone density”.

With `CC[C@H](C)[C@H](NC(=O)[C@H](CCC(=O)O)NC(=O)[C@H](CO)NC(=O)[C@@H](NC(=O)[C@@H](N)CO)C(C)C)C(=O)N[C@@H](CCC(N)=O)C(=O)N[C@@H](CC(C)C)C(=O)N[C@@H](CCSC)C(=O)N[C@@H](Cc1cnc[nH]1)C(=O)N[C@@H](CC(N)=O)C(=O)N[C@@H](CC(C)C)C(=O)NCC(=O)N[C@@H](CCCCN)C(=O)N[C@@H](Cc1cnc[nH]1)C(=O)N[C@@H](CC(C)C)C(=O)N[C@@H](CC(N)=O)C(=O)N[C@@H](CO)C(=O)N[C@@H](CCSC)C(=O)N[C@@H](CCC(=O)O)C(=O)N[C@@H](CCCN=C(N)N)C(=O)N[C@H](C(=O)N[C@@H](CCC(=O)O)C(=O)N[C@@H](Cc1c[nH]c2ccccc12)C(=O)N[C@@H](CC(C)C)C(=O)N[C@@H](CCCN=C(N)N)C(=O)N[C@@H](CCCCN)C(=O)N[C@@H](CCCCN)C(=O)N[C@@H](CC(C)C)C(=O)N[C@@H](CCC(N)=O)C(=O)N[C@@H](CC(=O)O)C(=O)N[C@H](C(=O)N[C@@H](Cc1cnc[nH]1)C(=O)N[C@@H](CC(N)=O)C(=O)N[C@@H](Cc1ccccc1)C(=O)O)C(C)C)C(C)C` [hPTH(1-34), reference compound], the “blood calcium levels (in words)” value in series [4] is recorded as “transient elevation of blood calcium levels”. Also, the “nausea and headache as side effects (in words)” value was “same frequency as observed in the placebo group” in series [5] (dose of 20 μg); “caused nausea and headache as side effects at a statistically significant level” in series [5] (dose of 40 μg).

The record behind these values is patent US20050148763A1, “Peg-binding pth or peg-binding pth derivative” (Chugai Seiyaku Kabushiki Kaisha, priority 2002, published 2005).
